# Measured values reported in the supplement of paper PMC11316812.
# ± gives the standard deviation of the averaged measurements.
# Key:
# MCF7 = experiment: percentage of EdU-negative (G0-arrested) nuclei per well, 72 h; higher = more G0 arrest; details: reference: sequence is the full UniProt precursor, the tested protein was the secreted form or ectodomain
# hTERT-HMEC = experiment: as above; details: reference: sequence is the full UniProt precursor, the tested protein was the secreted form or ectodomain
# [1] = protein concentration 0.0225 µM
# [2] = protein concentration 0.03125 µM
# [3] = protein concentration 0.3125 µM
# [4] = protein concentration 0.00592 µM
# [5] = protein concentration 0.0592 µM
# [6] = protein concentration 0.0135 µM
# [7] = protein concentration 0.0257143 µM
# [8] = protein concentration 0.257143 µM
# 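Further: secreted proteins added to cultured cells, EdU pulse at the end, nuclei found by Hoechst imaging, EdU status from nuclear versus surrounding ring intensity ratio, PBS as neutral control.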
sequence,measurement,setting,value
MAKSFPVFSLLSFILIHLVLSSVSGPRHWWPPRGIIKVKCPYEKVNLSWYNGTVNPCPGLYQPICGTNFITYDNPCILCVESLKSHGRIRFYHDGKC [Q6IE38],percentage of EdU-negative,MCF7; [1],24 ± 0.13%
same,percentage of EdU-negative,MCF7; protein concentration 0.225 µM,27 ± 1.2%
same,percentage of EdU-negative,hTERT-HMEC; [1],6.19 ± 0.33%
same,percentage of EdU-negative,hTERT-HMEC; protein concentration 0.225 µM,6.12 ± 0.94%
MGPLSAPPCTQHITWKGLLLTASLLNFWNLPITAQVTIEALPPKVSEGKDVLLLVHNLPQNLAGYIWYKGQLMDLYHYITSYVVDGQINIYGPAYTGRETVYSNASLLIQNVTREDAGSYTLHIIKRGDRTRGVTGYFTFNLYLKLPKPYITINNSKPRENKDVLAFTCEPKSENYTYIWWLNGQSLPVSPRVKRPIENRILILPSVTRNETGPYECEIRDRDGGMRSDPVTLNVLYGPDLPSIYPSFTYYRSGENLYLSCFAESNPPAEYFWTINGKFQQSGQKLSIPQITTKHRGLYTCSVRNSATGKESSKSMTVEVSAPSGIGRLPLLNPI,percentage of EdU-negative,MCF7; [2],24.6 ± 2.5%
same,percentage of EdU-negative,MCF7; [3],26.86 ± 0.057%
same,percentage of EdU-negative,hTERT-HMEC; [2],4.75 ± 0.52%
same,percentage of EdU-negative,hTERT-HMEC; [3],4.28 ± 0.12%
MHLLGFFSVACSLLAAALLPGPREAPAAAAAFESGLDLSDAEPDAGEATAYASKDLEEQLRSVSSVDELMTVLYPEYWKMYKCQLRKGGWQHNREQANLNSRTEETIKFAAAHYNTEILKSIDNEWRKTQCMPREVCIDVGKEFGVATNTFFKPPCVSVYRCGGCCNSEGLQCMNTSTSYLSKTLFEITVPLSQGPKPVTISFANHTSCRCMSKLDVYRQVHSIIRRSLPATLPQCQAANKTCPTNYMWNNHICRCLAQEDFMFSSDAGDDSTDGFHDICGPNKELDEETCQCVCRAGLRPASCGPHKELDRNSCQCVCKNKLFPSQCGANREFDENTCQCVCKRTCPRNQPLNPGKCACECTESPQKCLLKGKKFHHQTCSCYRRPCTNRQKACEPGFSYSEEVCRCVPSYWKRPQMS,percentage of EdU-negative,MCF7; [4],25.4 ± 0.75%
same,percentage of EdU-negative,MCF7; [5],25.31 ± 0.24%
same,percentage of EdU-negative,hTERT-HMEC; [4],5.07 ± 0.77%
same,percentage of EdU-negative,hTERT-HMEC; [5],5.93 ± 0.55%
MDLRQFLMCLSLCTAFALSKPTEKKDRVHHEPQLSDKVHNDAQSFDYDHDAFLGAEEAKTFDQLTPEESKERLGKIVSKIDGDKDGFVTVDELKDWIKFAQKRWIYEDVERQWKGHDLNEDGLVSWEEYKNATYGYVLDDPDPDDGFNYKQMMVRDERRFKMADKDGDLIATKEEFTAFLHPEEYDYMKDIVVQETMEDIDKNADGFIDLEEYIGDMYSHDGNTDEPEWVKTEREQFVEFRDKNRDGKMDKEETKDWILPSDYDHAEAEARHLVYESDQNKDGKLTKEEIVDKYDLFVGSQATDFGEALVRHDEF,percentage of EdU-negative,MCF7; [6],22.72 ± 0.078%
same,percentage of EdU-negative,MCF7; protein concentration 0.135 µM,23.6 ± 3.3%
same,percentage of EdU-negative,hTERT-HMEC; [6],5.58 ± 1.3%
same,percentage of EdU-negative,hTERT-HMEC; protein concentration 0.135 µM,7.65 ± 0.27%
MAPARAGFCPLLLLLLLGLWVAEIPVSAKPKGMTSSQWFKIQHMQPSPQACNSAMKNINKHTKRCKDLNTFLHEPFSSVAATCQTPKIACKNGDKNCHQSHGAVSLTMCKLTSGKHPNCRYKEKRQNKSYVVACKPPQKKDSQQFHLVPVHLDRVL [Q9H1E1],percentage of EdU-negative,MCF7; [2],24.6 ± 0.7%
same,percentage of EdU-negative,MCF7; [3],26 ± 3.1%
same,percentage of EdU-negative,hTERT-HMEC; [2],4.51 ± 0.69%
same,percentage of EdU-negative,hTERT-HMEC; [3],6.66 ± 0.32%
MPGPWLLLALALTLNLTGVPGGRAQPEAAQQEAVTAAEHPGLDDFLRQVERLLFLRENIQRLQGDQGEHSASQIFQSDWLSKRQHPGKREEEEEEGVEEEEEEEGGAVGPHKRQHPGRREDEASWSVDVTQHKRQHPGRRSPWLAYAVPKRQHPGRRLADPKAQRSWEEEEEEEEREEDLMPEKRQHPGKRALGGPCGPQGAYGQAGLLLGLLDDLSRSQGAEEKRQHPGRRAAWVREPLEE,percentage of EdU-negative,MCF7; [7],23.3 ± 4.8%
same,percentage of EdU-negative,MCF7; [8],25.8 ± 1.8%
same,percentage of EdU-negative,hTERT-HMEC; [7],5.72 ± 0.18%
same,percentage of EdU-negative,hTERT-HMEC; [8],5.31 ± 0.67%
MASRWAVQLLLVAAWSMGCGEALKCYTCKEPMTSASCRTITRCKPEDTACMTTLVTVEAEYPFNQSPVVTRSCSSSCVATDPDSIGAAHLIFCCFRDLCNSEL,percentage of EdU-negative,MCF7; [1],23.5 ± 2.8%
same,percentage of EdU-negative,MCF7; protein concentration 0.225 µM,26.6 ± 1.9%
same,percentage of EdU-negative,hTERT-HMEC; [1],5.43 ± 0.94%
same,percentage of EdU-negative,hTERT-HMEC; protein concentration 0.225 µM,5.61 ± 1%
MKPVLPLQFLVVFCLALQLVPGSPKQRVLKYILEPPPCISAPENCTHLCTMQEDCEKGFQCCSSFCGIVCSSETFQKRNRIKHKGSEVIMPAN [Q8IUB5],percentage of EdU-negative,MCF7; [1],25.88 ± 0.11%
same,percentage of EdU-negative,MCF7; protein concentration 0.225 µM,23.6 ± 1%
same,percentage of EdU-negative,hTERT-HMEC; [1],4.99 ± 0.22%
same,percentage of EdU-negative,hTERT-HMEC; protein concentration 0.225 µM,5.21 ± 0.23%
